Laboratory results taken from the supplement of paper PMC12042874.
± gives the uncertainty stated by the source.

Experiment: amyloid nucleation score (Sup35N fusion, yeast selection) (log enrichment); library NNK2; higher = more nucleation; inactive = no reads after selection
Outline: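 The nucleation score is the log enrichment of output over input reads, calculated with DiMSum and centred on the mode score of non-aggregating sequences. Sequences with under 100 input reads were excluded. Reads came from Illumina sequencing of plasmid inserts from psi-negative yeast expressing Sup35N fused to peptides of 20 random codons, induced 24 hours with 100 μM copper sulfate and grown 7 days at 30°C without adenine and uracil.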

Row | Substance | amyloid nucleation score
1 | YNKLGCTARFTRAMWTFCGV | 0.066 ± 1
2 | LLHNIDVRTSRME | -0.846 ± 0.44
3 | IKCRVITQSCIPSSINRLDG | -0.114 ± 1.1
4 | SHGPLR | 5.556 ± 0.053
5 | FNYSPLRFCTNDC | 1.63 ± 0.31
6 | KEHGMESRPSWLTFSIYLVG | 0.428 ± 0.56
7 | EFSRDRSENIAGTPSLRLNQ | 4.56 ± 0.049
8 | IVSIFSWTEIRATLG | -1.87 ± 0.55
9 | EKRNVVVHLIGRWSTTLYWV | 1.25 ± 0.49
10 | SHQLICFSWRLDFYHRGLLQ | 2.5 ± 0.13
11 | GSVREQNFISRASLYAHGLS | -0.095 ± 0.29
12 | SYFHNHWFCLRQFRVDASWC | -0.047 ± 0.46
13 | QYNKCSMALVFCYCS | 8.26 ± 0.038
14 | THCFCGTNGWVMWGSPEGLA | 0.179 ± 0.55
15 | WLDSQWNLYLDLYHLYRSCR | 3.22 ± 0.12
16 | VDIEDGLG | 0.13 ± 0.22
17 | RFNIFVLLFLVPEVGLHMVV | inactive
18 | LHQGKPYITLALYRFLHGSR | -1.15 ± 1.1
19 | VAFKSTLQVLVANKFG | -0.627 ± 1
20 | DHLGWHEVTVSLELSFFYRV | 4.83 ± 0.11
21 | YILSWARFIEYDYLTPRVYS | 0.356 ± 0.57
22 | SLAFYTTYNNKILGNS | 3.08 ± 0.069
23 | LRRASINCKMLGGDVGQVMW | 0.404 ± 0.66
24 | TRNGWGSTGSLQRSQVSVWS | 0.25 ± 0.42
25 | IVSLLLRQSQ | 4.41 ± 0.061

Row | Substance | amyloid nucleation score
26 | NMFNPFRFRISNYEVCSNMC | 6.257 ± 0.043
27 | DDCVPQWEYK | 0.695 ± 0.42
28 | WTTMRLFLDFMYTLDRVGST | -0.291 ± 1.1
29 | ICFYLLHDRIHHSWD | 5.3 ± 0.096
30 | FSFYECLRGFFSNVDARCQV | 1.51 ± 0.11
31 | SRVYRCGWLGS | 0.274 ± 0.65
32 | MSFRSRPGLDDGWMIRWRGR | 0.446 ± 0.49
33 | FTALSIGLIIVMLRLYRRCF | -0.733 ± 0.64
34 | GCLRGIGIGGCVGCLRRILF | inactive
35 | GWPHKVEFKVNDIFMIFSMM | 5.281 ± 0.034
36 | MNACSQGVSQSSDFQL | 5.08 ± 0.066
37 | SCYLVYEFLLTGVSWWQSRL | 0.794 ± 0.48
38 | GLSAIPFTDG | -0.722 ± 0.45
39 | QVGFPWFGRQVKDYLLLYKP | 0.22 ± 0.4
40 | SWVVL | -0.563 ± 0.79
41 | NNKTKPVVFILSMYNYERFS | 2.12 ± 0.25
42 | LFESMPGCDDSNELIFWGIA | -0.722 ± 0.28
43 | QFGNVRLSS | 0.995 ± 0.53
44 | LPLYMTYACPVPTSIHRIIL | -0.06 ± 0.28
45 | STSRFTMQQRRKLYKSFCWR | -0.665 ± 1.1
46 | FPQWFHFGCNLARSL | -0.613 ± 0.46
47 | RNILPLARDSVVFNDCYDSG | 0.545 ± 0.33
48 | PGRRDSHVRAYQEGVVESVS | 0.051 ± 0.49
49 | ITADNVKSNHKAVVMNDIHG | -0.133 ± 0.49
50 | FDWQRLMG | 0.196 ± 0.64

Row | Substance | amyloid nucleation score
51 | SSASFSVHQYCYLLNPSF | 1.45 ± 0.28
52 | NLTYWLVLLRFKKLTDGEHE | -0.259 ± 0.3
53 | YNYASYLVHIALLFLSYIRR | 0.236 ± 1.1
54 | PFQSNNSEVDGSYYMSVRC | -0.705 ± 0.39
55 | SRSSHLM | 0.073 ± 0.37
56 | QELIK | 0.574 ± 0.44
57 | TNVINRCLSPCFGRSLFNIV | -0.805 ± 1.1
58 | IFHVIVWLFEDAFVQVQNYR | 4.29 ± 0.078
59 | KCWNRYKHSDDIYGVGFPSI | -1.09 ± 1
60 | SCSIPELNNEGIKVCFMNTE | 1.27 ± 0.13
61 | VREVDILYYC | 0.418 ± 0.48
62 | TDKCVTTFNCYNLHRR | 1.62 ± 0.15
63 | SLYCF | inactive
64 | YCCFMSRHGSKWHYVNICIF | inactive
65 | CTCQVFPHNALCQGSWVLPV | 1.07 ± 0.27
66 | FGQIRCWYTMICYGQDIGFT | 6.37 ± 0.047
67 | RSARDYSVLKSRILSSAGLG | 1.32 ± 0.39
68 | TSCHRLWLLFMCIAGG | -0.199 ± 0.79
69 | SGYMAHVLVFLSEGISVPC | inactive
70 | LQNFRCTGCVLFCMHICPAM | 4.84 ± 0.075
71 | RKCAPMDASSRHADSYPSQS | 1.24 ± 0.19
72 | RFDCLTVLLVFESYHFKTAG | -0.392 ± 0.31
73 | TRPCMFFRIELISLSTVLAR | 0.552 ± 0.46
74 | VLHRLRSLLERFLFYVDLIS | 0.355 ± 0.65
75 | HGRRQGFAVTVGN | 0.355 ± 0.45

Row | Substance | amyloid nucleation score
76 | KLRVFPLKESVSQGALQTVG | -0.476 ± 0.44
77 | TRYIADRAVVSNRC | 0.81 ± 0.31
78 | CGPPVIWVLLCKLGMFWTVS | -0.555 ± 0.55
79 | VSYYIRVYF | 5.648 ± 0.054
80 | SWALKRAPVGNR | inactive
81 | CVACLDM | inactive
82 | HGVLVIVRAYVHVGEWVAQL | 1.96 ± 0.4
83 | IWIKVTRLRVGFLKRVLVVA | -1.44 ± 0.55
84 | NSLGRYSFRFVRCEGVWKTR | -0.88 ± 0.76
85 | CCCASR | inactive
86 | DREWVYYCGYWECTMFRCIY | 1.12 ± 0.16
87 | LSALCES | 0.98 ± 0.53
88 | SASLSTRVNNTPLPALTRWV | 0.708 ± 0.62
89 | PKRFVLGY | -1.55 ± 0.62
90 | GSICAHGECF | 0.57 ± 0.81
91 | FNTILVRLPA | 0.455 ± 0.55
92 | WLSTVVL | inactive
93 | PVHSAVATVLTLVNGKIGGA | 1.24 ± 0.48
94 | FSFSCEGANFDVYTGMWQGS | -0.073 ± 0.45
95 | TVGGNQTLSKLFWSFQGMFW | inactive
96 | KWYFRSWRLMLYSVKFSFRI | -0.693 ± 0.55
97 | FWEYEPLPPQQMSTFPD | -0.106 ± 0.79
98 | MHQVFIKEYAEYYRVCERRM | 2.05 ± 0.064
99 | WRYGNDYTFLIMDGC | -0.511 ± 0.37
100 | NFVLGKTSSVVCSHQSAALT | 0.505 ± 0.18

Row | Substance | amyloid nucleation score
101 | HSLVTDEASCLTDRGHVGQV | 1.22 ± 0.27
102 | RSLSNMCN | -1.24 ± 1
103 | AFEFIPSKPRW | 0.667 ± 0.66
104 | VCDVLYKFGYSKN | 4.89 ± 0.058
105 | PFTMSVFKSYKIAQRSSWAW | 2.5 ± 0.089
106 | PSRLRYITICRVPGAMSDVN | 0.268 ± 0.27
107 | FFMLYYGYLLSVRDSCSLCI | -0.017 ± 0.76
108 | GLVSLLYGY | 0.185 ± 0.34
109 | CLYLACIEGWLP | 3.24 ± 0.056
110 | SILATYPMVRSRISIMNATL | -0.174 ± 0.28
111 | TSRWDWIINSVRHIYWFSCF | 4.26 ± 0.12
112 | LWAFHLNFVLSAVCLRRKNL | inactive
113 | GWQGTLVNCLEDYVCYVCHA | 5.34 ± 0.058
114 | LNSYFTFVWTSVFGCVDPYE | 5.723 ± 0.035
115 | TLDNIRFKLQTAGTAIMWRR | 0.311 ± 0.24
116 | ICRDWVDDNVFKIMGRTQRS | 0.099 ± 0.45
117 | GRFKITVTRYANVYSMLRVI | 1.02 ± 0.49
118 | MGGLNLCLWSSGLMLVGTGR | 5.237 ± 0.043
119 | HMNYKYFWGGLFNRMLGQLN | inactive
120 | ANVGYFVGW | 0.873 ± 0.31
121 | LARFSDMDKMKGSVGFWALK | -0.014 ± 0.62
122 | PCRFTYRRWTG | -0.496 ± 0.41
123 | AHKKRDMWLRKPGL | 1.68 ± 0.53
124 | VFFLFYTMWRLVYFEPNMKS | -1.25 ± 0.62
125 | VTKVLQFCSPSYLLYSRLNV | 0.709 ± 0.47

Row | Substance | amyloid nucleation score
126 | SSKLLYM | -0.059 ± 0.55
127 | RAFCVGSTYSSSGGQSLMRV | inactive
128 | YDDHDFNRAGGLTVTNVWMV | 3.64 ± 0.1
129 | MANSTLRV | 0.314 ± 0.39
130 | FRVKRL | -1.19 ± 1.1
131 | GCFSCHIWFTVRFYWTLYVP | inactive
132 | GDVYCNGLGISFVYFRGSRS | inactive
133 | RIDGVFTIVSFYMELEGIRV | inactive
134 | LISVDFRYYGYVVLGWISTL | 0.807 ± 0.1
135 | ALAYAWYLVGLLFSKVWRYS | 0.095 ± 0.42
136 | CKFLRVIA | -1.42 ± 0.41
137 | HSLCLVVLGFML | 5.428 ± 0.04
138 | NSEHTNLSSHLGNIRFINCL | 0.037 ± 0.79
139 | YHTRIYDL | 0.576 ± 0.45
140 | YEGFM | -0.297 ± 0.56
141 | LLPSGIIH | -0.815 ± 0.5
142 | NEHYGRTMTN | -0.064 ± 1.1
143 | SNIYLVPRFIWP | -0.338 ± 0.61
144 | KTCSACVSIKICLLNDGGNW | 9.63 ± 0.052
145 | VLITKYSFTRLEFTIKVTSS | 0.386 ± 0.57
146 | ALNPVCL | 0.623 ± 0.62
147 | WYCRVSMRNLYIFGSIRSAY | 5.34 ± 0.086
148 | HYSRI | 0.647 ± 0.58
149 | APSHPSTVFLYICLLFENKP | -0.128 ± 0.55
150 | SLVCM | -0.713 ± 0.29

Row | Substance | amyloid nucleation score
151 | GLMMPYL | 0.062 ± 0.39
152 | IHASSVILITCFEFNFYYFA | 4.64 ± 0.057
153 | TFCEWMLWNTLCQVLSVPPY | 6.423 ± 0.045
154 | SRGSYIPSPLRHSFSVLWRF | -0.785 ± 0.63
155 | MTCRRCNNAMWSGLLRLKIY | 2.97 ± 0.17
156 | YKAAIGFCINQCLRHHVTKR | inactive
157 | TIAPGRRYENVNKGCERRFI | -1.76 ± 0.76
158 | TLWLMPDLRTRLEAGCRYKT | -0.08 ± 0.44
159 | VRILYGS | 6.06 ± 0.082
160 | ANLSRCVELMSRPQSVD | 1 ± 0.15
161 | VFRYAGRCRNGIVGLYGATM | 4.677 ± 0.046
162 | SFCVLIRYNRFGAIS | 1.24 ± 0.22
163 | SVNYFLRGHKPRVNVVPSVE | 5.119 ± 0.046
164 | VSAELWIQSSVTSAYIIWQL | 0.98 ± 0.81
165 | QWGSMVSCRCYRPPTEGPGW | -0.605 ± 0.76
166 | RLIACIRIVSVVVNAVSLKG | 1.79 ± 0.42
167 | HCGCMEQA | 0.486 ± 0.8
168 | LYSDMRASDRYWTLSFDCKI | 1.88 ± 0.48
169 | NMVHNDRSRKVKLSWCATFK | 7.609 ± 0.058
170 | SLPIVEDITGYPLRSHWG | 0.172 ± 0.27
171 | GLLLGMVFFCGSSTTNMGGI | 5.902 ± 0.051
172 | GHYKISKAFTVTST | 2.58 ± 0.095
